Publication PMC4233170

Molecular target: FLAG-tagged Rrn3 purified from infected Sf9 cells (not stated (human or mouse cDNA cloned)) (UniProt Q9NYV6)
UniProt Q9NYV6, sequence (Q9NYV6 whole entry): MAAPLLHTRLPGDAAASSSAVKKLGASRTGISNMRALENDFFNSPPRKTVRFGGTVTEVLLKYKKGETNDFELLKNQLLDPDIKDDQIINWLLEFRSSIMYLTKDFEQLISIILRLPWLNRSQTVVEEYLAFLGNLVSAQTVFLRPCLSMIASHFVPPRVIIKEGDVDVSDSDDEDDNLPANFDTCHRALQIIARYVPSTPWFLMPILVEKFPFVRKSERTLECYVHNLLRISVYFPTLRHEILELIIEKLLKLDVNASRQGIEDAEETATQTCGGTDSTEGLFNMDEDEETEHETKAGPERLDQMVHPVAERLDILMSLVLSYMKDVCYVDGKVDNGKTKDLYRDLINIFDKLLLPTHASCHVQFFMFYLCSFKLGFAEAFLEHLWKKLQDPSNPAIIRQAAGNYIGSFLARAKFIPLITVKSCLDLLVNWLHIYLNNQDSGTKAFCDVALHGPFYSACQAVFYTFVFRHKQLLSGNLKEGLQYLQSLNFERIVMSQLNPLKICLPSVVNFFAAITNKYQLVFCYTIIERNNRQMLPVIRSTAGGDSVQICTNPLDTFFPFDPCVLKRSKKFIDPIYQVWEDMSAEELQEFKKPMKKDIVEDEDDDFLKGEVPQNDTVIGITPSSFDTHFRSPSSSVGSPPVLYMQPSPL

B1: TAT-22mer: HIV TAT based cell penetrating peptide coupled to the 22mer of rpa43 (peptide)
peptide: GGGRKKRRQRRRNKVSSSHIGCLVHGCFNASIPK
- labelling of the 47/45S pre-rRNA precursor in N1S1 cells treated with TAT-22mer: 70 % inhibition
